{"source": "paper PMC7374887", "about": "“Severe syndromic ID and skewed X-inactivation in a child with NAA10 dysfunction and a novel heterozygous de novo NAA10 p.(His16Pro) variant - a case report” (BMC Medical Genetics, 2020)", "binders": {"B1": {"name": "NAA15 (natural protein, human (endogenous in HeLa), UniProt Q9BXJ9 1-866, looked up)", "chain": "MPAVSLPPKENALFKRILRCYEHKQYRNGLKFCKQILSNPKFAEHGETLAMKGLTLNCLGKKEEAYELVRRGLRNDLKSHVCWHVYGLLQRSDKKYDEAIKCYRNALKWDKDNLQILRDLSLLQIQMRDLEGYRETRYQLLQLRPAQRASWIGYAIAYHLLEDYEMAAKILEEFRKTQQTSPDKVDYEYSELLLYQNQVLREAGLYREALEHLCTYEKQICDKLAVEETKGELLLQLCRLEDAADVYRGLQERNPENWAYYKGLEKALKPANMLERLKIYEEAWTKYPRGLVPRRLPLNFLSGEKFKECLDKFLRMNFSKGCPPVFNTLRSLYKDKEKVAIIEELVVGYETSLKSCRLFNPNDDGKEEPPTTLLWVQYYLAQHYDKIGQPSIALEYINTAIESTPTLIELFLVKAKIYKHAGNIKEAARWMDEAQALDTADRFINSKCAKYMLKANLIKEAEEMCSKFTREGTSAVENLNEMQCMWFQTECAQAYKAMNKFGEALKKCHEIERHFIEITDDQFDFHTYCMRKITLRSYVDLLKLEDVLRQHPFYFKAARIAIEIYLKLHDNPLTDENKEHEADTANMSDKELKKLRNKQRRAQKKAQIEEEKKNAEKEKQQRNQKKKKDDDDEEIGGPKEELIPEKLAKVETPLEEAIKFLTPLKNLVKNKIETHLFAFEIYFRKEKFLLMLQSVKRAFAIDSSHPWLHECMIRLFNTAVCESKDLSDTVRTVLKQEMNRLFGATNPKNFNETFLKRNSDSLPHRLSAAKMVYYLDPSSQKRAIELATTLDESLTNRNLQTCMEVLEALYDGSLGDCKEAAEIYRANCHKLFPYALAFMPPGYEEDMKITVNGDSSAEAEELANEI"}}, "molecular_target": "T1, NAA10 H16P-V5 (human, UniProt P41227-1 1-235, H16P)", "T1 sequence (looked up)": "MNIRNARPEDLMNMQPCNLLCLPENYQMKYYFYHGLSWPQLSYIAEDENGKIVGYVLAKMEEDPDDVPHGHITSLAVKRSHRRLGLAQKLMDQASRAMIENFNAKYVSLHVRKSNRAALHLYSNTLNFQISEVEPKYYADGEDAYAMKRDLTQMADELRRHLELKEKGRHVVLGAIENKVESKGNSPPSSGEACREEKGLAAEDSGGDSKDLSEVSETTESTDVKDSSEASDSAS", "assay": "cell-based or functional assay", "data": [{"binder": "B1", "values": [{"measurement": "Nt-acetylation assay of the V5 immunoprecipitate towards the monomeric NAA10 substrate EEEI24, normalized to NAA10-V5, relative to NAA10 WT-V5", "value": 1.5, "unit": "fold"}]}]}
